Results as given in patent US6635450.

Tests used:
[1] = tested on: Kip1 (28-79), 52-amino acid peptide with a C-terminal hexahistidine tag
[2] = tested on: recombinant mouse Kip1 with a C-terminal hexahistidine sequence (expressed in BL21(DE3) bacteria from pET21a)
[3] = molecular target: His-cyclin E-Cdk2 complex (baculoviral human cyclin E with N-terminal hexahistidine, in complex with baculoviral Cdk2) (human) (UniProt P24864); test: cell-based or functional assay
[4] = molecular target: human cyclin A-Cdk2 complex (baculovirally expressed) (human) (UniProt P20248); test: cell-based or functional assay

Chain of recombinant mouse Kip1 with a C-terminal hexahistidine sequence (expressed in BL21(DE3) bacteria from pET21a) (chain, as listed by the source): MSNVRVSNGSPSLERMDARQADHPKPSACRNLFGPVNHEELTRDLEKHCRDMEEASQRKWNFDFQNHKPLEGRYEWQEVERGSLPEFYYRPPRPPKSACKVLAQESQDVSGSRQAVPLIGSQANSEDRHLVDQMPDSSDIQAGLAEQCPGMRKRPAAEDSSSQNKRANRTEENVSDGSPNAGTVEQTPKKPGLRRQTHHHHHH
Chain of Kip1 (28-79), 52-amino acid peptide with a C-terminal hexahistidine tag (chain, as listed by the source): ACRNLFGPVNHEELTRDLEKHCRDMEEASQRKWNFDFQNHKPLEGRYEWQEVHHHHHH

Row | Substance | Rb phosphorylation [1] | Rb kinase activity (phosphorylation of a GST-Rb fusion product) [2] | cyclin E-associated histone H1 kinase activity and Thr160-phosphorylated form of Cdk2 on western blot [2] | histone H1 kinase activity, half-maximal inhibition [3] [nM] | histone H1 kinase activity, concentration for complete inhibition [4] [fold]
1 | His-cyclin E-Cdk2 complex (baculoviral human cyclin E with N-terminal hexahistidine, in complex with baculoviral Cdk2) | inhibited cyclin E-Cdk2 or cyclin D2:Cdk4 less effectively | Addition of Kip1 to cyclin E-Cdk2, cyclin A-Cdk2 or cyclin D2-Cdk4 complexes inhibited their ability to phosphorylate a GST-Rb fusion product | – | – | –
2 | cyclin E-Cdk2 complexes assembled in A549 cell extracts (added histidine-tagged baculoviral cyclin E with the endogenous Cdk2) | – | – | Addition of histidine-tagged Kip1 to the cell extracts markedly decreased the level of cyclin E-associated kinase activity | – | –
3 | human cyclin A-Cdk2 complex (baculovirally expressed) | This peptide inhibited Rb phosphorylation by cyclin A-Cdk2 with a potency that was close to that of full length Kip1 | Addition of Kip1 to cyclin E-Cdk2, cyclin A-Cdk2 or cyclin D2-Cdk4 complexes inhibited their ability to phosphorylate a GST-Rb fusion product | – | – | –
4 | recombinant mouse Kip1 with a C-terminal hexahistidine sequence (expressed in BL21(DE3) bacteria from pET21a) (from UniProt P46414 1-197) | – | – | – | 0.5 | 8
